These results are taken from patent US20230365685A1 (SUZHOU NEOLOGICS BIOSCIENCE, published 2023).

Assay [1] deals with T1, human TIM-3 recombinant protein (TIM-3-his) (human, UniProt Q8TDQ0 22-202).
T1 construct: also called TIM-3 protein; not shown: His tag
The assay is described as follows: biosensor (HFC sensor, Probe Life): antibody captured, TIM-3-his in solution, 1:1 fit.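 Further: antigen applied as a twofold dilution series, association and dissociation phases recorded, KD obtained as koff divided by kon.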

The target of assay [2] is T2, cynomolgus TIM-3 (cynomolgus, UniProt A0A2K5U3G7 22-294).
T2 construct: whole, on cells
T2 sequence: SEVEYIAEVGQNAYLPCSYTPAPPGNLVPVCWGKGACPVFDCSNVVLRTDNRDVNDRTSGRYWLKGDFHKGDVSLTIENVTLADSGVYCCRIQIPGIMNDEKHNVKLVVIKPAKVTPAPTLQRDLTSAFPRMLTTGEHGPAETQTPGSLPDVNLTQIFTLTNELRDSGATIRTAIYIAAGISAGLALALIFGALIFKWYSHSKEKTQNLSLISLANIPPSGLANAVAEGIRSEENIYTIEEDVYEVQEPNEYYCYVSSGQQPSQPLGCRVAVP
In words: flow cytometry on 293T cells stably expressing cynomolgus TIM-3, serially diluted antibody, PE-labelled secondary antibody [lower panel]. In general terms: Flow cytometry measures light scatter and fluorescence of single cells or particles in a stream.
Protocol: (§1) Briefly, serially diluted anti-TIM-3 antibodies were incubated with cell lines stably expressing mouse TIM-3 or cynomolgus TIM-3 (10⁵ cells/well). Then, PE-labelled mouse anti-human IgG antibody (Biolegend) was used as detection antibody. A flow cytometer (Canto II, BD, USA) was used to measure fluorescence.

In assay [3] the target is T3, biotinylated human TIM-3 (human, UniProt Q8TDQ0 22-202, limits assumed, biotinylated (sites not given)). The assay is described as follows: competition ELISA: antibody coated, biotinylated human TIM-3 preincubated with competitor CH 10#. On the technique in general: In an ELISA, binding on a coated surface is turned into a signal by an enzyme label.
Assay [4] has as its target T3, biotinylated human TIM-3. In words: competition ELISA: antibody coated, biotinylated human TIM-3 preincubated with competitor MBG453.
Protocol: (§2) Antibodies were diluted with PBS to 2 μg/mL. 50 μl antibody solution was added to each well of the 96-well plate, which was incubated at 4° C. overnight. The plate was then washed with wash buffer (0.05% Tween in PBS) three times and blocked with 5% skim milk in PBS at 37° C. for two hours. The biotinylated human TIM-3 and antibodies were preincubated at room temperature for half an hour and then added to the plate. The plate was then incubated at room temperature for 1 hour and washed three times with wash buffer. 50 μl streptavidin HRP (1:1000, BD) was then added to each well at room temperature and incubated for about 1 hour. 50 μl of TMB substrate was added to each well, and the reaction was then terminated with 50 μl HCL after 1-5 minutes. Absorbance was read at 450 nm and IC50 value was analyzed.
The target of the next assay is T4, mouse TIM-3 (mouse, UniProt Q8VIM0 20-281).
T4 construct: whole, on cells
The assay is described as follows: flow cytometry on cells stably expressing mouse TIM-3, PE-labelled secondary antibody; concentration not shown.

The target in assay [5] is T3, biotinylated human TIM-3. In words: competition ELISA: antibody coated, biotinylated human TIM-3 preincubated with competitor 16H1.
Protocol: as §2
Assay [6] addresses T3, biotinylated human TIM-3. In words: competition ELISA: antibody coated, biotinylated human TIM-3 preincubated with competitor CH 11#.
Protocol: as §2
Assay [7] deals with T2, cynomolgus TIM-3. In words: flow cytometry on 293T cells stably expressing cynomolgus TIM-3, serially diluted antibody, PE-labelled secondary antibody [upper panel].
Protocol: as §1
For assay [8], the target named is T3, biotinylated human TIM-3. The assay is described as follows: competition ELISA: antibody coated, biotinylated human TIM-3 preincubated with competitor 4H2.
Protocol: as §2
The target in another assay is T5, human TIM-3 (human, UniProt Q8TDQ0 22-202, limits assumed).
T5 construct: also called HAVCR2; target antigen
The assay is described as follows: blocking assay, flow cytometry: antibody preincubated with recombinant human TIM-3-Fc, then binding of TIM-3-Fc to apoptotic 293T cells; blocked ligand: phosphatidylserine.

Assay [9] concerns the target T3, biotinylated human TIM-3. The assay is described as follows: competition ELISA: antibody coated, biotinylated human TIM-3 preincubated with competitor TSR022.
Protocol: as §2
Assay [10] concerns the target T3, biotinylated human TIM-3. The assay is described as follows: competition ELISA: antibody coated, biotinylated human TIM-3 preincubated with competitor 19D11.
Protocol: as §2
The target of assay [11] is T3, biotinylated human TIM-3. The assay is described as follows: competition ELISA: antibody coated, biotinylated human TIM-3 preincubated with competitor 3E6.
Protocol: as §2
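Wherever inhibit percentage is given: plate-coated antibody at 2 µg/mL.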

Protocol for mouse TIM-3: as §1

B1: 3F2 (antibody, V domains shown)
VH: EVQLQQSGPELVKTGSSVKISCKASGYSFTGYYMHWVRQSPGKSLEWIGYISCYNGATNYNQKFKGKATFTVDTYSSTAYMQFDSLASEDSAVYYCVRDYYLSVMDYWGQGTSVTVSS
VL: NIMMTQSPSSLAVSAGEKVTMSCKSSQSVLYSSNQKNYLAWYQQKPGQSPKLLIYWASFRESGVPDRFTGSGSGTDFTLTISSVQAEDLAVYYCHQSLSSYTFGGGTKLEIK
The term Kd denotes the constant that tells how readily two partners part at equilibrium. As a reminder, the koff is the first-order rate constant of dissociation. As a reminder, the kon is the rate constant with which the complex forms. Usually EC50 (read off the curve) stands for the concentration giving half of the maximal effect. Read a high EC50 (read off the curve) as a need for much substance. Consider B1, for which, in assay [1], the dissociation constant (Kd) was determined as 1.11 nM, the koff stood at 0.00066 s⁻¹ and the kon was determined as 596000 M⁻¹ s⁻¹. Besides, the half-maximal effective concentration (EC50 (read off the curve)) in the assay with cynomolgus TIM-3 [2] was about 0.4 µg/mL.

B2: 39D1 (antibody, V domains shown)
VH: QVQLQQSGAELMKPGASVKISCKATGYTFSSSYWIEWVKQRPGHGLEWIGEILPGSGSINYNEKFKGKATFTADTSSNTVYMQLSSLTSDDSAVYYCARSYYYVMDYWGQGTSVTVSS
VL: QIVLTQSPAIMSASPGEMLTITCSASSSVRFMHWFQQKPGTSPKLWIYSTSNLASGVPARFSGSGSGTSYSLTVSRMEAEDAATYYCQQRSSYPPTFGGGTKLEIK
In the case of B2, in [1], the Kd stood at 1.13 nM, the koff was found to be 0.00141 s⁻¹ and the kon worked out at 1.25e+06 M⁻¹ s⁻¹. In the assay with cynomolgus TIM-3 [2], the concentration for a half-maximal effect (EC50 (read off the curve)) is about 0.02 µg/mL.

B3: 16H1 (antibody, V domains shown)
VH: QVQLQQSGPQLVRPGSSVQISCKTSGYSFTSYLMHWVRQRPGQGLEWIGSIDPSDSEISLNQKFMDKATLTVDKSSSTANMQFSSPTSEDSAVYFCARDFGYVAWFVYWGQGTLVTVSA
VL: DIVMTQSHKFMSTSIEDRVSITCKASQDVSAAVAWYQQKPGQTPKLLIYSTFYRYIGVPDRFTGSGSGTDFTFTITSVQAEDLAVYFCQQHYSVPWTFGGGTKLEIK
notes: also called I6H1
As to B3, the inhibit percentage is 15.1% with biotinylated human TIM-3 [3]; 81.7% with biotinylated human TIM-3 [4]; 100% with biotinylated human TIM-3 [5]; 8.26% with biotinylated human TIM-3 [6]; 64.7% in the assay with biotinylated human TIM-3 [8]; 4.02% with biotinylated human TIM-3 [9]. Also, the figures for the inhibit percentage with biotinylated human TIM-3 [10] and in the assay with biotinylated human TIM-3 [11] were 0.06% and 60%, respectively. In [1], the Kd was determined as 0.168 nM. Further, in assay [1], the koff amounted to 0.000218 s⁻¹. Besides, the kon in assay [1] came out at 1.3e+06 M⁻¹ s⁻¹. The binding result in the assay with mouse TIM-3 is on record as “no binding”. Also, the “EC50 (read off the curve)” value with cynomolgus TIM-3 [7] was about 0.04 µg/mL. For the same molecule, the “IC50 (read off the curve)” value in the assay with human TIM-3 is about 2 µg/mL.
